± gives the uncertainty stated by the source.
Assay: self-splicing fitness, log relative to wild type (ln ratio); higher = more splicing; Tetrahymena group I intron in knt gene, E. coli kanamycin selection, DiMSum; sequences stand for … in CUCUCU…GGAGGGAAAAGUUAUCAGGCAUGCACCUGGUAGCUAGUCUUUAAACCAAUAGAUUGCAUCGGUUUAAAAGGCAAGACCGUCAAAUUGCGGGAAAGGGGUCAACAGCCGUUCAGUACCAAGUCUCAGGGGAAACUUUGAGAUGGCCUUGCAAAGGGUAUGGUAAUAAGCUGACGGACAUGGUCCUAACCACGCAGCCAAGUCCUAAGUCAACAGAUCUUCUGUUGAUAUGGAUGCAGUUCACAGACUAAAUGUCGGUCGGGGAAGAUGUAUUCUUCUCAUAAGAUAUAGUCGGACCUCUCCUUAAUGGGAGCUAGCGGAUGAAGUGAUGCAACACUGGAGCCGCUGGGAACUAAUUUGUAUGCGAAAGUAUAUUGAUUAGUUUUGGAGUACUCGUGGUCG
How it was run: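 Library with all eight P1ex-region intron nucleotides randomised, intron inside the knt kanamycin-resistance gene on pET-22b(+), in E. coli BL21(DE3). Cells grew overnight at 37°C or 30°C on LB agar with or without 25 μg/mL kanamycin (plus 100 μg/mL carbenicillin, 50 μM IPTG, 0.2% rhamnose), in six replicate transformations. Pooled colonies were amplicon-sequenced on Illumina HiSeq 2500. DiMSum fitness is the error-weighted combination of wild-type-normalised replicate fold changes, kanamycin versus none.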

Sequence	self-splicing fitness (ln) (30 °C)	self-splicing fitness (ln) (37 °C)
UCCUAGCAAUAUUACGACUU	-3.74 ± 0.46	-2.74 ± 0.3
UCCUAGCAAUAUUACGAGAA	-1.36 ± 0.25	-0.965 ± 0.23
UCCUAGCAAUAUUACGAGAC	-2.09 ± 0.33	-1.71 ± 0.4
UCCUAGCAAUAUUACGAGGU	-3.53 ± 0.19	-1.45 ± 0.13
UCCUAGCAAUAUUACGAGUC	-2.71 ± 0.31	–
UCCUAGCAAUAUUACGAUCA	-2.01 ± 0.1	-1.36 ± 0.096
UCCUAGCAAUAUUACGAUGA	0.139 ± 0.083	0.437 ± 0.098
UCCUAGCAAUAUUACGCAGC	–	-0.949 ± 0.4
UCCUAGCAAUAUUACGCAUG	-2.52 ± 0.28	–
UCCUAGCAAUAUUACGCGAU	-3.18 ± 0.28	-2.65 ± 0.5
UCCUAGCAAUAUUACGCGCG	-4.03 ± 0.29	-2.45 ± 0.31
UCCUAGCAAUAUUACGCGUA	-2.95 ± 0.23	-1.53 ± 0.14
UCCUAGCAAUAUUACGCUGG	-3.84 ± 0.42	-2.29 ± 0.32
UCCUAGCAAUAUUACGGAGG	-2.63 ± 0.17	-1.73 ± 0.2
UCCUAGCAAUAUUACGGAUC	-3.39 ± 0.23	-2.53 ± 0.26
UCCUAGCAAUAUUACGGAUU	-4.22 ± 0.23	-2.36 ± 0.21
UCCUAGCAAUAUUACGGCGG	-3.94 ± 0.27	-2.92 ± 0.2
UCCUAGCAAUAUUACGGGCC	-2.79 ± 0.12	-1.17 ± 0.11
UCCUAGCAAUAUUACGGUGG	-3.31 ± 0.15	-2.32 ± 0.13
UCCUAGCAAUAUUACGUAAC	-3.53 ± 0.24	-2.07 ± 0.27
UCCUAGCAAUAUUACGUAGU	-2.62 ± 0.15	-1.29 ± 0.18
UCCUAGCAAUAUUACGUAUG	-4.13 ± 0.3	-2.62 ± 0.26
UCCUAGCAAUAUUACGUCAA	–	-1.52 ± 0.39
UCCUAGCAAUAUUACGUCGC	-4.08 ± 0.42	-2.58 ± 0.36
UCGAAGCAAUAUUACGACCU	-1.51 ± 0.16	-1.1 ± 0.18
UCGAAGCAAUAUUACGACUC	–	0.412 ± 0.47

Sequence	self-splicing fitness (ln) (30 °C)	self-splicing fitness (ln) (37 °C)
UCGAAGCAAUAUUACGAUAG	-2.95 ± 0.25	-1.14 ± 0.18
UCGAAGCAAUAUUACGAUGG	-0.763 ± 0.079	-0.538 ± 0.13
UCGAAGCAAUAUUACGCAAU	–	-2.03 ± 0.27
UCGAAGCAAUAUUACGCGAG	-1.47 ± 0.074	-0.905 ± 0.1
UCGAAGCAAUAUUACGCGGC	-3.35 ± 0.32	-2.87 ± 0.36
UCGAAGCAAUAUUACGGAAA	-1.95 ± 0.49	-0.855 ± 0.25
UCGAAGCAAUAUUACGGUCA	-1.83 ± 0.11	-0.525 ± 0.12
UCGAAGCAAUAUUACGGUGU	-2.05 ± 0.094	-1.62 ± 0.15
UCGAAGCAAUAUUACGUAGA	-1.81 ± 0.14	-0.562 ± 0.15
UCGAAGCAAUAUUACGUCAG	-0.27 ± 0.089	-0.968 ± 0.12
UCGAAGCAAUAUUACGUCUA	0.0685 ± 0.078	0.296 ± 0.077
UCGAAGCAAUAUUACGUGAG	-0.469 ± 0.053	-0.72 ± 0.088
UCGAAGCAAUAUUACGUUUU	-3.28 ± 0.14	-3.09 ± 0.29
UCGCAGCAAUAUUACGACCA	-1.83 ± 0.13	-1.07 ± 0.14
UCGCAGCAAUAUUACGACGA	-1.67 ± 0.17	-0.408 ± 0.14
UCGCAGCAAUAUUACGACUA	0.0221 ± 0.14	-0.0509 ± 0.14
UCGCAGCAAUAUUACGAUCG	-0.735 ± 0.092	-0.359 ± 0.12
UCGCAGCAAUAUUACGCAUG	-3.79 ± 0.33	-2.56 ± 0.27
UCGCAGCAAUAUUACGCCAU	–	-1.96 ± 0.4
UCGCAGCAAUAUUACGCCGA	-1.83 ± 0.19	-2.26 ± 0.22
UCGCAGCAAUAUUACGCCUC	–	-2.36 ± 0.39
UCGCAGCAAUAUUACGCGUG	-3.34 ± 0.15	-1.44 ± 0.14
UCGCAGCAAUAUUACGCUAU	-5.08 ± 0.36	-3 ± 0.17
UCGCAGCAAUAUUACGGCAG	-0.619 ± 0.1	-0.379 ± 0.11
UCGCAGCAAUAUUACGGCCG	-0.546 ± 0.12	-0.522 ± 0.18
UCGCAGCAAUAUUACGGGCG	-2.7 ± 0.13	-0.856 ± 0.12

Sequence	self-splicing fitness (ln) (30 °C)	self-splicing fitness (ln) (37 °C)
UCGCAGCAAUAUUACGGGUG	-1.16 ± 0.053	-1.03 ± 0.074
UCGCAGCAAUAUUACGGUAA	-0.786 ± 0.061	-0.563 ± 0.071
UCGCAGCAAUAUUACGGUGA	-4.44 ± 0.46	-2.45 ± 0.15
UCGCAGCAAUAUUACGGUGU	–	-2.63 ± 0.24
UCGCAGCAAUAUUACGGUUG	-2.75 ± 0.1	-1.47 ± 0.12
UCGCAGCAAUAUUACGUAAA	-1.69 ± 0.094	-1.12 ± 0.12
UCGCAGCAAUAUUACGUAAU	-3.39 ± 0.15	-2.19 ± 0.21
UCGGAGCAAUAUUACGAAGA	–	-2.3 ± 0.42
UCGGAGCAAUAUUACGAAGU	–	-0.529 ± 0.24
UCGGAGCAAUAUUACGACAC	-3.18 ± 0.48	-1.19 ± 0.3
UCGGAGCAAUAUUACGAGAU	–	-1.51 ± 0.35
UCGGAGCAAUAUUACGAGCC	-2.93 ± 0.41	–
UCGGAGCAAUAUUACGAGGA	-3.64 ± 0.4	-0.618 ± 0.21
UCGGAGCAAUAUUACGCGCU	–	-2.3 ± 0.37
UCGGAGCAAUAUUACGCGGU	-3.14 ± 0.23	-2.94 ± 0.43
UCGGAGCAAUAUUACGCUUG	-3.64 ± 0.27	-2.83 ± 0.35
UCGGAGCAAUAUUACGGGAA	–	-2.08 ± 0.4
UCGGAGCAAUAUUACGGGCA	-2.38 ± 0.16	-0.971 ± 0.13
UCGGAGCAAUAUUACGGUAA	-3.18 ± 0.21	-1.68 ± 0.23
UCGGAGCAAUAUUACGUCCC	-1.39 ± 0.46	–
UCGGAGCAAUAUUACGUGAA	-3.41 ± 0.39	-1.63 ± 0.14
UCGGAGCAAUAUUACGUGGA	-1.28 ± 0.2	-1.48 ± 0.18
UCGGAGCAAUAUUACGUUUC	–	-2.02 ± 0.43
UCGUAGCAAUAUUACGAACA	-2.55 ± 0.28	-1.82 ± 0.2
UCGUAGCAAUAUUACGACUU	-2.7 ± 0.22	-0.781 ± 0.17
UCGUAGCAAUAUUACGAGCA	-0.579 ± 0.3	-1.13 ± 0.24

Sequence	self-splicing fitness (ln) (30 °C)	self-splicing fitness (ln) (37 °C)
UCGUAGCAAUAUUACGAUUU	-3.1 ± 0.25	-2.4 ± 0.24
UCGUAGCAAUAUUACGCAAC	–	-2.42 ± 0.48
UCGUAGCAAUAUUACGCAAG	-3.91 ± 0.35	-2.12 ± 0.27
UCGUAGCAAUAUUACGCGCA	-0.601 ± 0.11	-0.0623 ± 0.15
UCGUAGCAAUAUUACGCUAG	-2.95 ± 0.26	-2.32 ± 0.29
UCGUAGCAAUAUUACGCUCU	-3.62 ± 0.32	-0.606 ± 0.18
UCGUAGCAAUAUUACGGACG	-2.58 ± 0.24	-1.68 ± 0.21
UCGUAGCAAUAUUACGGAGC	-2.59 ± 0.18	-2.35 ± 0.39
UCGUAGCAAUAUUACGGGUG	-1.66 ± 0.11	-2.66 ± 0.14
UCGUAGCAAUAUUACGGUAA	-2.67 ± 0.35	0.253 ± 0.19
UCGUAGCAAUAUUACGUCCC	-2.74 ± 0.3	–
UCGUAGCAAUAUUACGUGAA	-2.73 ± 0.16	-1.8 ± 0.17
UCGUAGCAAUAUUACGUGAU	-2.2 ± 0.2	-1.48 ± 0.46
UCGUAGCAAUAUUACGUGGU	-3.45 ± 0.4	-2.67 ± 0.48
UCGUAGCAAUAUUACGUGUU	-3.06 ± 0.21	-2.46 ± 0.19
UCUAAGCAAUAUUACGACCU	-3.7 ± 0.35	-1.92 ± 0.24
UCUAAGCAAUAUUACGACGU	-0.257 ± 0.087	-0.334 ± 0.11
UCUAAGCAAUAUUACGAGAC	-1.53 ± 0.12	-2.52 ± 0.2
UCUAAGCAAUAUUACGAUCC	-3.87 ± 0.39	-2.5 ± 0.36
UCUAAGCAAUAUUACGCUAG	-2.73 ± 0.16	-2.89 ± 0.26
UCUAAGCAAUAUUACGCUCU	-3.32 ± 0.47	-2.58 ± 0.41
UCUAAGCAAUAUUACGGAAU	-4.16 ± 0.46	-1.64 ± 0.33
UCUAAGCAAUAUUACGGACC	-1.71 ± 0.24	-1.99 ± 0.32

Reference: the supplement of paper PMC7877785
